B1: PBXIP1 (parent)
chain: FGEDGIFRHDRLRFRDFVDALEDS

Variants of: B1
Assay: protein stability index of a GFP-peptide fusion (GPS, HEK-293T) (PSI 1-6); higher = more stable
Conditions: c terminus: a fixed tail appended
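Also: lentivirally expressed fusions sorted by FACS into six bins by GFP to DsRed ratio, PSI derived from sequencing read proportions per bin multiplied by bin number.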

First: WGEDGIFRHDRLRFRDFVDALEDS [F1W]
Second: DGEDGIFRHDRLRFRDFVDALEDS [F1D]
The protein stability index of the first is lower: 3.1 for the first, 4.29 for the second.

First: RGEDGIFRHDRLRFRDFVDALEDS [F1R]
Second: PGEDGIFRHDRLRFRDFVDALEDS [F1P]
The protein stability index of the first is lower: 3.78 for the first, 4.16 for the second.

First: EGEDGIFRHDRLRFRDFVDALEDS [F1E]
Second: VGEDGIFRHDRLRFRDFVDALEDS [F1V]
The protein stability index of the first is higher: 4.29 for the first, 3.77 for the second.

Compared with TGEDGIFRHDRLRFRDFVDALEDS [F1T], SGEDGIFRHDRLRFRDFVDALEDS [F1S] is higher in protein stability index: 3.08 for the first, 3.74 for the second.

Compared with FGEDGIFRHDRWRFRDFVDALEDS [L12W], FGEDGIFRHDRGRFRDFVDALEDS [L12G] is higher in protein stability index: 2.7 for the first, 3.31 for the second.

First: FGEDGIFRHDRERFRDFVDALEDS [L12E]
Second: FGEDGIFRHDRIRFRDFVDALEDS [L12I]
The protein stability index of the first is higher: 3.51 for the first, 3.05 for the second.

First: FGEDGIFRHDRVRFRDFVDALEDS [L12V]
Second: FGEDGIFRHDRCRFRDFVDALEDS [L12C]
The protein stability index of the first is lower: 2.65 for the first, 2.74 for the second.

First: FGEDGIFRHDRLRFRDFVDALEDY [S24Y]
Second: FGEDGIFRHDRLRFRDFVDALEDA [S24A]
The protein stability index of the first is lower: 1.78 for the first, 2.21 for the second.

First: FGEDGIFRHDRLRFRDFVDALEDP [S24P]
Second: FGEDGIFRHDRLRFRDFVDALEDK [S24K]
The protein stability index of the first is lower: 2.51 for the first, 3.08 for the second.

Compared with FGEDGIFRHDRLRFRDFVDALEDW [S24W], FGEDGIFRHDRLRFRDFVDALEDG [S24G] is higher in protein stability index: 1.93 for the first, 2.32 for the second.

Going from FGEDGIFRHDRLRFRDFVDALEDF [S24F] to FQEDGIFRHDRLRFRDFVDALEDS [G2Q], the protein stability index rises from 1.8 to 2.66.

First: FTEDGIFRHDRLRFRDFVDALEDS [G2T]
Second: FLEDGIFRHDRLRFRDFVDALEDS [G2L]
The protein stability index of the first is lower: 2.35 for the first, 2.96 for the second.

Compared with FNEDGIFRHDRLRFRDFVDALEDS [G2N], FIEDGIFRHDRLRFRDFVDALEDS [G2I] is lower in protein stability index: 3.09 for the first, 1.97 for the second.

Going from FAEDGIFRHDRLRFRDFVDALEDS [G2A] to FCEDGIFRHDRLRFRDFVDALEDS [G2C], the protein stability index rises from 1.63 to 2.83.

Compared with FGMDGIFRHDRLRFRDFVDALEDS [E3M], FGTDGIFRHDRLRFRDFVDALEDS [E3T] is lower in protein stability index: 2.45 for the first, 2.28 for the second.

Compared with FGSDGIFRHDRLRFRDFVDALEDS [E3S], FGLDGIFRHDRLRFRDFVDALEDS [E3L] is higher in protein stability index: 2.02 for the first, 2.44 for the second.

Compared with FGEDGIFRHDRLRFRDFHDALEDS [V18H], FGEDGIFRHDRLRFRDFADALEDS [V18A] is higher in protein stability index: 2.53 for the first, 2.73 for the second.

First: FGEDGIFRHDRLRFRDFMDALEDS [V18M]
Second: FGEDGIFRHDRLRFRDFTDALEDS [V18T]
The protein stability index of the first is lower: 2.87 for the first, 3.27 for the second.

Compared with FGEDGIFRHDRLRFRDFKDALEDS [V18K], FGEDGIFRHDRLRFRDFPDALEDS [V18P] is lower in protein stability index: 3.13 for the first, 2.94 for the second.

Going from FGEDGIFRHDRLRFRDFFDALEDS [V18F] to FGEDGIFRHDRLRFRDFYDALEDS [V18Y], the protein stability index falls from 2.45 to 2.4.

Compared with FGEDGIFRHDRLRFRDFNDALEDS [V18N], FGEDGIFRHDRLRFFDFVDALEDS [R15F] is lower in protein stability index: 3.14 for the first, 2.68 for the second.

First: FGEDGIFRHDRLRFDDFVDALEDS [R15D]
Second: FGEDGIFRHDRLRFCDFVDALEDS [R15C]
The protein stability index of the first is higher: 2.87 for the first, 2.79 for the second.

Compared with FGEDGIFRHDRLRFNDFVDALEDS [R15N], FGEDGIFRHDRLRFHDFVDALEDS [R15H] is lower in protein stability index: 3.38 for the first, 2.48 for the second.

First: FGEDGIFRHDRLRFADFVDALEDS [R15A]
Second: FGEDGIFRHDRLRFQDFVDALEDS [R15Q]
The protein stability index of the first is lower: 2.38 for the first, 3.06 for the second.

First: FGEDGIFRHDRLRFYDFVDALEDS [R15Y]
Second: FGEDGIFRHDRLRFRDFVDALEYS [D23Y]
The protein stability index of the first is lower: 2.22 for the first, 2.62 for the second.

Compared with FGEDGIFRHDRLRFRDFVDALEHS [D23H], FGEDGIFRHDRLRFRDFVDALELS [D23L] is higher in protein stability index: 2.34 for the first, 2.42 for the second.

First: FGEDGIFRHDRLRFRDFVDALECS [D23C]
Second: FGEDGIFRHDRLRFRDFVDALEAS [D23A]
The protein stability index of the first is lower: 2.21 for the first, 2.22 for the second.

Going from FGEDGIGRHDRLRFRDFVDALEDS [F7G] to FGEDGIDRHDRLRFRDFVDALEDS [F7D], the protein stability index rises from 3.7 to 4.33.

First: FGEDGIMRHDRLRFRDFVDALEDS [F7M]
Second: FGEDGITRHDRLRFRDFVDALEDS [F7T]
The protein stability index of the first is higher: 4.07 for the first, 2.71 for the second.

First: FGEDGIYRHDRLRFRDFVDALEDS [F7Y]
Second: FGEDGIHRHDRLRFRDFVDALEDS [F7H]
The protein stability index of the first is lower: 2.98 for the first, 3.91 for the second.

First: FGEDGILRHDRLRFRDFVDALEDS [F7L]
Second: FGEDGIKRHDRLRFRDFVDALEDS [F7K]
The protein stability index of the first is lower: 3.13 for the first, 3.38 for the second.

Compared with FGEDGIVRHDRLRFRDFVDALEDS [F7V], FGEDGIRRHDRLRFRDFVDALEDS [F7R] is lower in protein stability index: 3.72 for the first, 2.84 for the second.

Going from FGEDGICRHDRLRFRDFVDALEDS [F7C] to FGEDGIFRHDRLRFRDFVDAVEDS [L21V], the protein stability index falls from 2.95 to 2.94.

Going from FGEDGIFRHDRLRFRDFVDAEEDS [L21E] to FGEDGIFRHDRLRFRDFVDASEDS [L21S], the protein stability index falls from 3.67 to 3.24.

Compared with FGEDGIFRHDRLRFRDFVDAGEDS [L21G], FGEDGIFRHDRLRFRDFVDAKEDS [L21K] is higher in protein stability index: 2.97 for the first, 3.3 for the second.

Going from FGEDGIFRHDRLRFRDFVDAMEDS [L21M] to FGEDGIFRHDRLRFRDFVDAWEDS [L21W], the protein stability index falls from 3.12 to 2.57.

Going from FGEDGIFRHDRLRFRDFVDAYEDS [L21Y] to FGEDGIFRHDRLRFRDFVDATEDS [L21T], the protein stability index falls from 3.18 to 3.13.

Compared with FGEDGIFRHDRLRFRDFVDACEDS [L21C], FGEDGIFRHDRLRFRDFVDAREDS [L21R] is lower in protein stability index: 3.48 for the first, 3.01 for the second.

FGEDGIFRHDRLRFRDFVDALTDS [E22T] and FGEDGIFRHDRLRFRDFVDALKDS [E22K] are the same in protein stability index: 2.08 for the first, 2.08 for the second.

Going from FGEDGIFRHDRLRFRDFVDALWDS [E22W] to FGEDGIFRHDRLRFRDFVDALLDS [E22L], the protein stability index rises from 1.97 to 2.97.

First: FGEDGIFRHDRLRFRDFVDALCDS [E22C]
Second: FGEDGIFRHDRLRFRDFVDALRDS [E22R]
The protein stability index of the first is lower: 1.93 for the first, 2.38 for the second.

Going from FGEDGIFRHDRLRFRDFVDALYDS [E22Y] to FGEDGIFRHDRLRFRDFVDALMDS [E22M], the protein stability index falls from 2.11 to 1.89.

Compared with FGEDGIFRHDRLRFRDFVDALFDS [E22F], FGEDGIFRHDRLRFRDFVDALQDS [E22Q] is higher in protein stability index: 1.65 for the first, 2.24 for the second.

Compared with FGEDGIFRHDRLRFRLFVDALEDS [D16L], FGEDGIFRHDRLRFRTFVDALEDS [D16T] is higher in protein stability index: 1.55 for the first, 2.08 for the second.

First: FGEDGIFRHDRLRFRNFVDALEDS [D16N]
Second: FGEDGIFRHDRLRFRCFVDALEDS [D16C]
The protein stability index of the first is lower: 1.89 for the first, 3.01 for the second.

First: FGEDGIFRHDRLRFRVFVDALEDS [D16V]
Second: FGEDGIFRHDRLRFRRFVDALEDS [D16R]
The protein stability index of the first is higher: 2.43 for the first, 2.36 for the second.

Going from FGEDGIFRHDRLRFRAFVDALEDS [D16A] to FGEDGIFRHDRLRFRMFVDALEDS [D16M], the protein stability index falls from 2.41 to 1.78.
